According to article PMC3519778:

Molecular target: CD26 on human monocyte-derived immature dendritic cells (human (endogenous in monocyte-derived iDCs)) (UniProt P27487)
Chain of UniProt P27487 (P27487 whole entry): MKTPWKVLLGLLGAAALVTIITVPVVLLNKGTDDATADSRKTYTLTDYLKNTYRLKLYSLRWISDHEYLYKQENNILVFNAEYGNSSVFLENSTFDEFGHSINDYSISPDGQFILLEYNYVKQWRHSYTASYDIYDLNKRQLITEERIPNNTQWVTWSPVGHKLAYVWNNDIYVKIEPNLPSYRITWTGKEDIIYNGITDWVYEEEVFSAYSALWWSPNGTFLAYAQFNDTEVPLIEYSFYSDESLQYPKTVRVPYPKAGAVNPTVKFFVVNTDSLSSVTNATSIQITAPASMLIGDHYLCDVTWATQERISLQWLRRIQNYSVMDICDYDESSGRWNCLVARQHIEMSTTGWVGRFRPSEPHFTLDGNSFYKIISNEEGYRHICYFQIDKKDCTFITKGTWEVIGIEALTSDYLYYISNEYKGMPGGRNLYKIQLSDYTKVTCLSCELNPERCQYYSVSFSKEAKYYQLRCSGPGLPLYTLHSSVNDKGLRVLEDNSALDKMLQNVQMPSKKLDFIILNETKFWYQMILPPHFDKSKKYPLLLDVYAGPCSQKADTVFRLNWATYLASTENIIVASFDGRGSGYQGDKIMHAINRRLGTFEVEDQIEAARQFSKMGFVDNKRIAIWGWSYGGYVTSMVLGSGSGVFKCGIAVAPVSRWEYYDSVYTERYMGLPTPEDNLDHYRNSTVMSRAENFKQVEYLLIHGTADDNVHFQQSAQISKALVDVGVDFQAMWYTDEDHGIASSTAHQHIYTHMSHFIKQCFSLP

ADA-mediated upregulation of CD80 on iDCs (flow cytometry, 48 h, 2 uM ADA) after pre-incubation of the cells with the anti-CD26 mAb TA5.9 (directed against the ADA-binding epitope on CD26): 0.64 in-fold | ADA-mediated upregulation of CD83 on iDCs (flow cytometry, 48 h, 2 uM ADA) after pre-incubation of the cells with the anti-CD26 mAb TA5.9 (directed against the ADA-binding epitope on CD26): 0.46 in-fold
B1: Adenosine deaminase (ADA, EC 3.5.4.4) from calf intestine (enzyme)
chain: MAQTPAFNKPKVELHVHLDGAIKPETILYYGRKRGIALPADTPEELQNIIGMDKPLSLPEFLAKFDYYMPAIAGCREAVKRIAYEFVEMKAKDGVVYVEVRYSPHLLANSKVEPIPWNQAEGDLTPDEVVSLVNQGLQEGERDFGVKVRSILCCMRHQPSWSSEVVELCKKYREQTVVAIDLAGDETIEGSSLFPGHVKAYAEAVKSGVHRTVHAGEVGSANVVKEAVDTLKTERLGHGYHTLEDATLYNRLRQENMHFEVCPWSSYLTGAWKPDTEHPVVRFKNDQVNYSLNTDDPLIFKSTLDTDYQMTKNEMGFTEEEFKRLNINAAKSSFLPEDEKKELLDLLYKAYGMPSPASAEQCL
